test: soluble on expression in E. coli; label from the status in PepcDB or PDB records

Row | Sequence | soluble on expression in E. coli
1 | MTEEFNESMINDIKEGDKVTGEVQQVEDKQVVVHINGGKFNGIIPISQLSTHHIENPSEVVKQGDEIEAYVTKIEVDEENDSGVYILSKRQLETEKSYEYLQEKLDNDEIIEAKVTEVVKGGLVVDVGQRGFVPASLISTDFIEDFSVFDGQTIRIKVEELDPENNRVILSRKAVEQAENDVKKASLLESLNAGDVIKGKVARLTNFGAFVDIGGVDGLVHVSELSHEHVDSPEDVVSVGQEVDVKVKSVEKDAERISLSIKDTLPTPFESIKGQFHEDDVIEGKVVRLANFGAFVEIAPGVQGLVHISEIAHEHIGTPGEKLEPGQQVNVKILGIDEENERISLSIKATLPKEDVVESDDATTQSYLSNDSIEDNPTLGDVFGDKFKDLKF | soluble
2 | MTEIRVHQGDLPNLDNYRIDAVAVDTETLGLQPHRDRLCVVQLSSGDGTADVIQIAKGQKSAPNLVRLLSDRDITKIFHFGRFDLAILAHTFGVMPDVVFCTKIASKLTRTYTDRHGLKEICGELLNVNISKQQQSSDWAAETLSRAQIEYAASDVLYLHRLKDIFEERLKREERESVAKACFQFLPMRANLDLLGWSEIDIFAHS | not soluble
3 | MTELHGECMCGAVTITATPARAALGACHCDMCRRWTSSAYVSFPVEPGYAALGPVKVYGSSDWAERAFCGTCGSVLWYRITLPGKMHGQTQMAAGLFENAGGNALKLELYIDKKPEGYAFAGERRQMTQAEVEAMYAPSDLGDSQ | not soluble
4 | MTENKSFKESHPLDDFISDKELSNTTIQKEKLTIEQQKQVDTISKQINPLDNEGLLAFGSDLQKQMSQFSHQMLDEVQSKDVGPIGDTLSDLMSKLKSVNPNELNTDKPSMLKRIFSRAKSSINEIFSRMQSVSAQVDRITIQLQKHQTHLTRDIELLDTLYDKNKQYFDDLSLHIIAAQQKKLQLENEKLPQLQQQAQQSTNQMDIQQVSDMQQFIDRLDKRIYDLQLSRQIALQTAPQIRMIQNVNQALAEKIQSSILTSIPLWKNQMAIALTLMRQRNAVAAQRAVTDTTNDLLTANAEMLKQNAIETATENERGIVDLDTLKRTQRNIIETIEETLIIQQHGREERQLAEKELQQLEQDLKSHLVNIKGPNKQS | not soluble
5 | MTEQLKDFDVAEHLTSEEEIQLYLNEILQEDNIELILSALGDIARARNMSQIARDAGISREGLYKALSGTGNPTFATVMKVMKALNLQFQVQQSRFA | not soluble
6 | MTETTHVTSCPLNCWDVCGLKVTVNEGKVVRVDGDEHHPITKGNICGRGRMLKERVNAKERLLYPLKKVNGQFVRISWEEALDDIAGKMRKLKEQFGPTAVLHSHDYANNGLLKNLDRRFFNCYGGATELIGSLCWGAGIEAQTWDFGNAYSHAPEDIDNSRHIVIWGRNVARTNMHLFERLLAAKKRGATIVVIDPLFGPTARIADQYVCIKPGMDAFLAMGIMKELLRLGLEDRAFIKQHTIGFDDVKQLLQTISLAEIERHTGVSRDQMTKLARLYGDRPTATYLGLGMQRYANGGNTIRWIDALVAASGNVGIPGGGANFGNLQVGECFDKAALTLPERKTASRTWTMMKQGEEILRADDPPIGMVIVTCGNPLAQVPNTNLMKKAFASIETVVVFEQFMTDTAAMADYVLPVAASFEEEDVYCSSMYHAYLNYGPKLVDPPGEAKPDLWIWTELAKRLGFGDDFAYTREQFLAMALRPLEHHGITLKRLKTEHRVLLPVEPVPWRDRRFQTPSGKYEFTSTIAKKKGMDGRLQIMYPAESEESNPALAAKYPYRLLTIHPLRSNHSQHYPLIPALQTVRIEVAADVAAAKGLADGDRARVYNDRGSLVGTVKVLDGAYPGTINIDEGQWGVFGGPVNVLTSDLESDNGCGSALYDCLVNIEKVTSEAK | soluble
7 | MTEYKLVVVGDGGVGKSALTIQLIQNHFVEEYDPTIEDSYRKQVVIDGETCLLDILDTAGQEEYSAMRDQYMRTGEGFLLVFAVNEAKSFENVANYREQIRRVKDSDDVPMVLVGNKCDLSSRSVDFRTVSETAKGYGIPNVDTSAKTRMGVDEAFYTLVREIRKHRERHDNNKPQKKKKCQIM | not soluble
8 | MTEYNIGAKIKKLRLAKKLTLQAVARETGFSPALISQIENNNVSPPIATLSKIAKFFDVKISLFFSEDEEEYRYEVVRRGERKVIPRVISRAGTSQGYSYESLSFRKQNKKMEPFLLTVTEKAAEENTYNHDGEEFLFVMKGTAELLLEDERVILEEGDCVYFDSSLKHRLLSRDGSEVQVLAVVTR | not soluble
9 | MTFLIKRETQVDQILRDIRAVVNQMVPKEAKITEIEFEGPELVIYVKNPEAIMKDGELIKDLAKVLKKRISVRPDPEVLLPPEEAEKLIFEIVPKEAEITNIAFDPSVGEVLIEAKKPGLVIGKNGETLRLITQKVKWAPKVVRTPPLQSQTIYSIRQILQTESKDRRKFLRQVGRNIYRKPEYKSRWIRITGLGGFREVGRSALLVQTDESFVLVDFGVNVAMLNDPYKAFPHFDAPEFQYVLREGLLDAIIITHAHLDHCGMLPYLFRYNLFDGPIYTTPPTRDLMVLLQKDFIEIQQSNGQDPLYRPRDIKEVIKHTITLDYGEVRDISPDIRLTLHNAGHILGSAIVHLHIGNGLHNIAITGDFKFIPTRLLEPANAKFPRLETLVMESTYGGANDIQMPREEAEKRLIEVIHNTIKRGGKVLIPAMAVGRAQEVMMVLEEYARIGGIEVPIYLDGMIWEATAIHTAYPEYLSRRLREQIFKEGYNPFLSEIFHPVANSRERQDIIDSNEPAIIIASSGMLVGGPSVEYFKQLAPDPKNSIIFVSYQAEGTLGRQVQSGIREIPMVGEEGRTEVIKVNMEVHTIDGFSGHADRRELMNYVAKVRPRPERIITVHGEPQKCLDLATSIHRKFGISTRAPNNLDTIRLR | soluble
10 | MTGSVVVAGLGPGAQELITPEVSAALALATDIVGYAPYVARVAERDGLQRHASDNREELDRAGFALRLATEGRHVVIVSSGDPGVFAMAAALFEAIEAGDPSWRELDIRVLPGIS | not soluble
11 | MTGTYTELIEGSERLSGLTDVDEVIKDLSRLLRKLVKTRWIAVYFFDRERRDFAPARSTGLPASFLPVFREMPLAPDKIPLLKSMLRKRQHLMLTDPGSSDLLTPKLRKLLRNLCVLAVPMVVRTQVIGAVFMARTRDNPPFSDAETAIIRDLVSHAALVVSHMQLFDE | not soluble
12 | MTGVLVGCSVEKTNTNKVNIDKVEIVAPNVQGAGWDLTARAMQKTLTEEKIFTKPITVTNKVGGSGDVGWKYTKQKGGHVLAINSSLLITNNLLGHSKLTYKDFTPLATLASDWEVVVVSKDSNIENANQLMEQLKQNKKNFKIGVAPGLGNDDHLSFVQVSKAFGINPAELQFFVYENKEKIISALTNKQINAATMTLSEAEKQYKAGKIKILAVSAPKRIDRLPQIPTWKEQGIDVIFQHWKGIMGPKDMTEEEVAYWDDVIKRMVESDSWKGILRERGWESFYKGSGESSGWYGGMIKTEKVDEEGSYRMRFLGLFIGNLIYS | not soluble
13 | MTHELISLPYAVDALAPVISKETVEFHHGKHLKTYVDNLNKLIIGTEFENADLNTIVQKSEGGIFNNAGQTLNHNLYFTQFRPGKGGAPKGKLGEAIDKQFGSFEKFKEEFNTAGTTLFGSGWVWLASDANGKLSIEKEPNAGNPVRKGLNPLLGFDVWEHAYYLTYQNRRADHLKDLWSIVDWDIVESRY | soluble
14 | MTHRPELHVTPEIGILDAPAGALFDGTRWHLFHQFRPKATAPSRWAHDYATTDPFNWEICDDVIAPQGDEIRLRAGSVTSDGKTTRLYFTSITNEGDSIHLAEITDLDATTYDVNDDATTTDPHVTRLGQVVADQGGYTNFRSPCVVPNWVTADDRDEGHSGWIMLAVTGDMDEPTLVILDSENGTDWELRGPLKVVGNSGIEAERPVAPRIIRLRDEIDQNVYDILIVTIEIGGIDRSGYLVGKLHNNIFTVVSPFTRIDYGHDFTRPRNTNYTSHLNSSVAPEHRYSHAHVFGLMNGIGRLDDATTHLSFREEQWANCLSLPRRMTLQGGKIYHTPVAGLPDAIRDSDHAIMWTGLLDVPLGEKVTVELVDTTGNIAAKITHYGDLLELDRSMNPHHEGDDIAVAPLTEDDTDSVTIIVDGSTVEVFADGGQIAMASRVYFNGYCEAFTPQASDGADILRSDVTKPLG | not soluble

— the DeepSol protein solubility set
